According to US9744220B2, “Compositions and methods for treating inflammatory diseases” (priority 2013, dated 2017):

Legend:
H9c2 cardiomyocytes = test: sPDNF stimulation of H9c2 cardiomyocytes, secretion by ELISA; type: cell-based, rat; conditions: H9c2, 3 hr
Experimental: FIG. 8A is a graph showing dose-response of MCP-1 secretion to sPDNF stimulation. H9c2 cardiomyocytes were plated in 6-well plates, grown in low serum (0.1% FCS) overnight, and stimulated with the indicated doses of sPDNF for 3 hr. Secretion of MCP-1, MIP-2α and IL-6 was determined by ELISA. FIG. 8B is a graph showing dose-response of MCP-transcript expression. H9c2 cardiomyocytes were plated in 6-well plates, grown in low serum (0.1%) overnight, and stimulated with the indicated doses of sPDNF for 3 hr, and MCP-transcript quantified by qPCR. Chemokine gene expression was normalized to HPRT and fold change calculated relative to vehicle-treated cells. Points represent mean±SD fold change expression of triplicate samples; *P<0.05, **P<0.01, and ***P<0.005. FIG. 8C is a graph showing time course of MCP-1 and FKN transcripts expression. H9c2 cardiomyocytes were plated in 6-well plates (triplicate), grown in low serum (0.1%) overnight, stimulated with sPDNF (1 μg/ml) for the indicated times, and MCP-1 and FKN (data not shown) transcripts quantified by qPCR. Three experiments gave similar results.
Primary cardiomyocytes and cardiac fibroblasts, and H9c2 cardiomyocytes were seeded at 6-8×10^4 cells per well in DMEM/10% FCS and allowed to adhere overnight, serum starved (DMEM/0.1% FCS overnight), and treated with sPDNF (0.5 ng/ml-8 μg/ml, 0-16 h). Cell supernatants were collected and stored at −80° C. and cell monolayers rinsed with PBS and collected in Trizol for qPCR analysis.
MCP-1: 96-well Maxisorp plates (Nunc) were coated overnight with relevant supernatants or MCP-1 standards (R&D Systems, 479-JE/CF) in coating buffer (50 mM NaHCO3/Na2CO3, pH 9.6, 0.02% NaN3), blocked in 5% BSA/PBST, reacted with a MCP-1 detection antibody (Santa Cruz, SC-28879; 1:200; 2 hr), and then alkaline-phosphatase (AP) conjugated secondary antibody (Sigma A3687; 1:1000; 1 hr). Between each step, plates were washed 2-4 times with PBST. […] MCP-1 concentrations were calculated relative to a 4-parametric standard curve using the SOFTmax Pro program. […]

MCP-1 and FKN = test: Single dose IV sPDNF into naive wild type C57BL/6 mice, MCP-1 and FKN by real time PCR; type: in vivo
Experimental: Wild type C57BL/6 mice were used in the results depicted in FIGS. 11A-11D. FIG. 11A is a graph depicting that a single dose of intravenous (IV) sPDNF increased MCP-1 and FKN transcripts in the heart in a pulse-like response. Groups of mice (2 per group) were injected with vehicle (Veh) or sPDNF (150 μg/mouse) and sacrificed at 3, 6, 9 and 12 hr post-injection, and cardiac MCP-1 and FKN transcripts were quantified by qPCR. Points represent fold change of the mean±SD relative to Veh injected mice; *P<0.05 and **P<0.01. Experiment repeated three times with similar results; liver also responded with similar pulselike kinetics. FIG. 11B is a graph depicting that organ distribution of MCP-1 increased following a single IV dose of sPDNF. Experimental design analogous to that summarized above. FIG. 11C is a graph showing that a single IV dose of sPDNF augments MCP-1 and FKN transcripts dose-dependently in the heart. FIG. 11D is a graph showing that a single IV dose of sPDNF augments MCP-1 and FKN transcripts dose-dependently in the liver. For the results depicted in FIGS. 11C and 11D, groups of three mice were injected with various doses of sPDNF, and heart and liver harvested 3 hr post-injection to quantify MCP-1 and FKN by qPCR. The results are plotted as a composite of three distinct experiments. […] For the results depicted in FIGS. 11E-11H, TLR-deficient MyD88^−/− mice (two per group) were injected IV with vehicle (PBS) or sPDNF (100 μg per mouse), sacrificed 3 hr post-injection. FIG. 11E is a graph showing MCP-1 expression in the heart of MyD88^−/− mice injected with sPDNF. FIG. 11F is a graph showing FKN expression in the heart of MyD88^−/− mice injected with sPDNF. FIG. 11G is a graph showing MCP-1 expression in the liver of MyD88^−/− mice injected with sPDNF. FIG. 11H is a graph showing FKN expression in the liver of MyD88^−/− mice injected with sPDNF.
Groups of naive wild type C57BL/6 mice were injected with vehicle (PBS) or a single dose of IV sPDNF. Mice were sacrificed at various timepoints post-injection, and heart MCP-1 and FKN expression measured by real time PCR. […] The agonist effect of IV sPDNF was screened in various organs using optimum time response (3 hr post-injection) using the same dose as in FIG. 11A. […] Organ distribution of MCP-1 expression in response to IV sPDNF was similar to that of FKN. Without being bound to a particular theory, the selective increase of MCP-1 and FKN in various organs may reflect the uneven expression of PDNF receptors TrkA and TrkC in neural and non-neural tissues (22, 50).
RNA was isolated from Trizol lysates of cell monolayers or liquid nitrogen snap frozen tissue samples dissociated by a Tissue-Tearor mechanical homogenizer (Biospec Products, Inc.). cDNA was synthesized using the Quantitect Reverse Transcription kit (Qiagen) according to manufacturer's instructions. Chemokine and chemokine receptor transcripts were amplified using specific primers and normalized to HPRT using SYBR Green (Qiagen), and, if needed, expressed relative to control-unstimulated cells. The following primers were used: […]
sPDNF was diluted in sterile endotoxin-free PBS (200 μl) and injected via the tail vein into 6-8 week old female C57BL/6 mice. Mice receiving single IV injections of 150 μg sPDNF per mouse were sacrificed at 3, 6, 9, and 12 hr post-injection, or various doses of sPDNF (100 ng-150 μg) and sacrificed 3 hr post-injection. Mice receiving multiple injections of sPDNF or PBS vehicle control (0, 3, and 24 hr, 100 μg per injection) were sacrificed 24 hr after the last injection (i.e., 48 hr after the first injection). Mice were perfused with PBS and organs harvested as described above.

[1] = single IV dose 150 μg/mouse, pulse-like kinetics
[2] = various single IV doses, 3 hr post-injection

B1: sPDNF: N-terminal short-form of T cruzi PDNF that contains Trk-binding sites, recombinant; amino acids 1-588 of SEQ ID NO: 2; JR-100 is the commercial name (protein, listed as Trypanosoma cruzi)
chain: MGKTVVVASRMFWLMFFVPLLLAICPSEPAYALAPGSSRVELFKRKNSTVPFEDKAGKVTERVVHSFRLPALVNVDGVMVAIADARYDTSNDNSLIDTVAKYSVDDGETWETQIAIKNSRVSSVSRVVDPTVIVKGNKLYVLVGSYYSSRSYWSSHGDARDWDILLAVGEVTKSTAGGKITASIKWGSPVSLKKFFPAEMEGMHTNQFLGGAGVAIVASNGNLVYPVQVTNKKKQVFSKIFYSEDDGKTWKFGKGRSDFGCSEPVALEWEGKLIINTRVDWKRRLVYESSDMEKPWVEAVGTVSRVWGPSPKSNQPGSQSSFTAVTIEGMRVMLFTHPLNFKGRWLRDRLNLWLTDNQRIYNVGQVSIGDENSAYSSVLYKDDKLYCLHEINTDEVYSLVFARLVGELRIIKSVLRSWKNWDSHLSSICTPADPAASSSESGCGPAVTTVGLVGFLSGNASQNVWEDAYRCVNASTANAERVRNGLKFAGVGGGALWPVSQQGQNQRYRFANHAFTLVASVTIHEAPRAASPLLGASLDSSGGKKLLGLSYDEKHQWQPIYGSTPVTPTGSWETGKRYHLVLTMANKI
secretion of IL-6 (H9c2 cardiomyocytes): did not alter | secretion of macrophage inflammatory protein-2a/MIP-2a/CXCL2 (H9c2 cardiomyocytes): did not alter | secretion of MCP-1 (H9c2 cardiomyocytes; dose-dependently): dramatically increased | cardiac FKN transcripts (MCP-1 and FKN; [1]): significantly increased | cardiac MCP-1 transcripts (MCP-1 and FKN; [1]): significantly increased | expression of MCP-1 in the heart, liver and spleen (MCP-1 and FKN; single IV dose, 3 hr post-injection, liver most robust): increased expression | time of peak of cardiac FKN (MCP-1 and FKN; single IV dose, post-injection): 3 h | time of peak of cardiac MCP-1 (MCP-1 and FKN; single IV dose, post-injection): 3 h | increased expression of FKN in the heart (MCP-1 and FKN; [2]): dose-dependent | increased expression of MCP-1 in the heart (MCP-1 and FKN; [2]): dose-dependent | increased expression of MCP-1 in the liver (MCP-1 and FKN; [2]): dose-dependent
